Laboratory results reported in article PMC4446614.

Target: His-sumo-TBC1D15 (shark TBC1D15 from Chiloscyllium plagiosum) (Chiloscyllium plagiosum)

Which release of inorganic phosphate (Pi) by GTP hydrolysis, A360 read every 5 min (EnzChek Phosphate Assay Kit; Rab7 700 nM, TBC1D15 300 nM, 22 °C); Rab or TBC1D15 alone as the blank does the source give for “MBP-Rab7a-WT (from UniProt P51149 1-207) (natural protein)” here?
The release of inorganic phosphate (Pi) by GTP hydrolysis, A360 read every 5 min (EnzChek Phosphate Assay Kit; Rab7 700 nM, TBC1D15 300 nM, 22 °C); Rab or TBC1D15 alone as the blank was 0.4 A360.
